Source: patent US9540424B2, “Serum albumin binding molecules” (BRISTOL-MYERS SQUIBB COMPANY, priority 2010, dated 2017)
Where “and” joins values, the source holds several entries; their conditions need not be identical. Identical values can stand only once. No end group written: not given here.

B1: SABA3.1: His-tagged SABA3 sequence (protein)
chain: MGVSDVPRDLEVVAATPTSLLISWSNDGPGLSYYRITYGETGGNSPVQEFTVPSSQTTATISGLKPGVDYTITVYAVSYYTKKAYSAGPISINYRTEIDKPSQHHHHHH
modifications: His6 tag
B2: SABA1-AMYv25: SEQ ID NO: 328; SABA1.7-(ED)5G-Cys conjugated to Maleimide-PEG20-Amylin-CONH2 (conjugate)
chain: MGVSDVPRDLEVVAATPTSLLISWHSYYEQNSYYRITYGETGGNSPVQEFTVPYSQTTATISGLKPGVDYTITVYAVYGSKYYYPISINYRTEIEDEDEDEDEDGC
modifications: Maleimide-PEG20-Amylin-CONH2 conjugated via Cys
B3: SABA1.1: core SABA1 with N-terminal MGVSDVPRDLE, C-terminal EIDKPSQ and His6 tag; SEQ ID NO: 89 (protein)
chain: MGVSDVPRDLEVVAATPTSLLISWHSYYEQNSYYRITYGETGGNSPVQEFTVPYSQTTATISGLKPGVDYTITVYAVYGSKYYYPISINYRTEIDKPSQHHHHHH
B4: SABA5.1: His-tagged SABA5 sequence (protein)
chain: MGVSDVPRDLEVVAATPTSLLISWEDDSYYSRYYRITYGETGGNSPVQEFTVPSDLYTATISGLKPGVDYTITVYAVTYDVTDLIMHEPISINYRTEIDKPSQHHHHHH
modifications: His6 tag

Columns and labels:
HEK parental cells = experiment: cAMP levels in HEK parental cells; assay type: cell-based, human
human NPY Y4 receptor = biological target: T1, human NPY Y4 receptor (Homo sapiens, UniProt P50391); experiment: GTPγS binding functional assay: NPY Y4 receptor membranes; assay type: biochemical
T1 construct: expressed in transfected cells; host or cells: CHO cells (membrane preparation)
Description: Peptide YY (PYY) and pancreatic polypeptide (PP) are native satiety factors secreted from intestine and pancreas, respectively, in response to food ingestion, and are reduced upon fasting. PYY and PP may both be isolated in their full-length form which are 36-residue peptide amides. PYY can also be further cleaved by the enzyme DPPIV into a shorter biologically active form PYY(3-36). Peripheral injection of PYY(3-36) or PP causes reduction in food intake and body weight in animal models and in humans. Patients with morbid obesity have both reduced basal and meal-stimulated PYY(3-36) and/or PP levels. In contrast, patients with anorexia, or weight loss after bypass surgery, have higher than normal plasma PYY(3-36) and/or PP. Agonism of PYY(3-36) and PP are of great therapeutic value in treating obesity and metabolic diseases. NPY Y2 and Y4 are receptors with the highest affinity to PYY(3-36) and PP, respectively. NPY receptors belong to the G-protein coupled receptor family. Upon agonist stimulation, the NPY receptor may stimulate the down-streamed G-protein, exchanging its bound GDP for a GTP. […]
One T150 flask of recombinant CHO cells over-expressing human NPY Y2 or Y4 receptors were grown in F-12 medium (HAM, with L-glutamine) with G418 at 0.5 mg/ml until confluent. […] Protein concentration was measured and aliquots were stored at −80° C. until use. […]

MuSA = MuSA (Mus musculus, UniProt P07724); experiment: Biacore kinetics of SABAs on immobilized serum albumin: MuSA; assay type: binding
[1] = Half-life of HSA and of SABA1-4 with or without HSA in mice (ELISA, WinNonlin); assay type: in vivo, Ncr nude female mice; conditions: for half-life in mice plasma: injected without HSA; for increase in half life when co-injected with HSA: with HSA vs without HSA, mice
Method: The pharmacokinetic parameters of each Adnectin™ were determined using non-compartmental modeling with WinNonlin software.

RhSA = RhSA (Macaca mulatta, UniProt Q28522); experiment: Biacore kinetics of SABAs on immobilized serum albumin: RhSA; assay type: binding, rhesus
Method: (§1) In addition, binding to albumin was carried out under various pH conditions ranging from pH 5.5 to pH 7.4.

[2] = Differential Scanning calorimetry (DSC) thermostability of midscaled SABAs; assay type: physicochemical; conditions: 1 mg/ml solution, 5° C. to 95° C. at 1 degree per minute
Method: Differential Scanning calorimetry (DSC) analyses of the midscaled SABAs were performed to determine their respective Tm's. A 1 mg/ml solution was scanned in a N-DSC II calorimeter (calorimetry Sciences Corp) by ramping the temperature from 5° C. to 95° C. at a rate of 1 degree per minute under 3 atm pressure. The data was analyzed vs. a control run of the appropriate buffer using a best fit using Orgin Software (OrginLab Corp).

[3] = Analytical size exclusion chromatography (SEC) of SABAs; assay type: physicochemical; conditions: midscaled material
Method: Size exclusion chromatography (SEC) was performed on the SABAs resulting from the HTPP. SEC of HTPP derived material was performed using a Superdex 200 5/150 or Superdex 75 5/150 column (GE Healthcare) on an Agilent 1100 or 1200 HPLC system with UV detection at A214 nm and A280 nm and with fluorescence detection (excitation=280 nm, emission=350 nm). A buffer of 100 mM sodium sulfate, 100 mM sodium phosphate, 150 mM sodium chloride, pH 6.8 at appropriate flow rate of the SEC column employed. Gel filtration standards (Bio-Rad Laboratories, Hercules, Calif.) were used for molecular weight calibration.
Midscale expression and purification yielded highly pure and active Adnectins™ that were expressed in a soluble form and purified from the soluble fraction of the bacterial cytosol.
Standard size exclusion chromatography (SEC) was performed on the candidate SABAs resulting from the midscale process. SEC of midscaled material was performed using a Superdex 200 10/30 or on a Superdex 75 10/30 column (GE Healthcare) on an Agilent 1100 or 1200 HPLC system with UV detection at A214 nm and A280 nm and with fluorescence detection (excitation=280 nm, emission=350 nm). A buffer of 100 mM sodium sulfate, 100 mM sodium phosphate, 150 mM sodium chloride, pH 6.8 at appropriate flow rate of the SEC column employed. Gel filtration standards (Bio-Rad Laboratories, Hercules, Calif.) were used for molecular weight calibration.

Human serum albumin = biological target: T2, Human serum albumin (Homo sapiens, UniProt P02768); experiment: SPR (ProteOn XPR36) binding of SABA-neuropeptide fusions to Human Serum Albumin; conditions: 25° C., average of two experiments
T2 construct: purchased Novozymes Recombumin
Method: Surface Plasmon Resonance (SPR) is a direct binding technique by which molecular interactions can be observed in real time. For these experiments, SPR binding studies were performed using a ProteOn XPR36 instrument (BioRad Laboratories). The running buffer, phosphate buffered saline 0.05% Tween 20 pH 7.4, was purchased from Teknova (cat #P1192) and all experiments were run at 25° C. Human serum albumin was directly immobilized on a BioRad GLC chip via amine coupling as per manufacturer's guidelines using amine coupling reagents purchased from BioRad Laboratories. Human serum albumin was purchased from Novozymes (Recombumin™). About 5000 resonance units (RU) of human serum albumin were immobilized onto 4 separate lanes of the GLC chip surface. For each analyte, five concentrations ranging from 15.6 nM to 250 nM were injected over the surface at 30 μl/min for 240 seconds. The dissociation was monitored for 600 seconds. The surface was regenerated with 100 mM HCl. The resultant data were fitted to a Langumuir 1:1 binding model using the ProteOn Manager Software. The experiment was repeated with a different concentration range. In this second experiment, 5 concentrations ranging from 500 nM to 32 nM were injected over the surfaces, and the data analyzed as above. The KD is the disassociation constant. Smaller numbers indicate tighter binding to serum albumin. Molecules covalently attached to SABA that bind to serum albumin display longer in vivo pharmokinetic half-lives, as described earlier with respect to SABA-FGF-21 fusions.

HSA = HSA (Homo sapiens, UniProt P02768)
Method: as §1

[4] = Single dose pharmacokinetics of SABA1.1 and SABA5.1 in cynomolgus monkeys; assay type: in vivo; conditions: 1 mpk IV
Method: The pharmacokinetics were evaluated using a quantitative ELISA-based assay that was developed to detect the Adnectin™ in plasma samples.

[5] = co-injected with HSA (3-4 molar excess), tail vein

RhSA, sequence (Q28522 17-600): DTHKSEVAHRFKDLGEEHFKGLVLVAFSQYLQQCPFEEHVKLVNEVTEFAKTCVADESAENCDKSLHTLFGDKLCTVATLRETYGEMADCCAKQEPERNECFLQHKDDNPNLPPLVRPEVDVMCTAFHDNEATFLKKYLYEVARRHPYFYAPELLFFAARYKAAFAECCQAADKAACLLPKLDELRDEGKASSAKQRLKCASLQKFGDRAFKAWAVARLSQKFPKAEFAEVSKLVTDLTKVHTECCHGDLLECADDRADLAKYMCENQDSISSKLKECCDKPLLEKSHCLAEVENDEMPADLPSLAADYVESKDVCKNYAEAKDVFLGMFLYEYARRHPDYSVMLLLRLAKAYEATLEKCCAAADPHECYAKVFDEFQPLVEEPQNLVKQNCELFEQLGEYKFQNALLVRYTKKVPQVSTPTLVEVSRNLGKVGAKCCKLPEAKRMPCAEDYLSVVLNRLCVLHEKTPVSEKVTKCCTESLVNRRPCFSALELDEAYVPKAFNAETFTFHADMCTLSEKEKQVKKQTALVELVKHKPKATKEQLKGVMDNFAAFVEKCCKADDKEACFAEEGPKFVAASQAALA
MuSA, sequence (P07724 25-608): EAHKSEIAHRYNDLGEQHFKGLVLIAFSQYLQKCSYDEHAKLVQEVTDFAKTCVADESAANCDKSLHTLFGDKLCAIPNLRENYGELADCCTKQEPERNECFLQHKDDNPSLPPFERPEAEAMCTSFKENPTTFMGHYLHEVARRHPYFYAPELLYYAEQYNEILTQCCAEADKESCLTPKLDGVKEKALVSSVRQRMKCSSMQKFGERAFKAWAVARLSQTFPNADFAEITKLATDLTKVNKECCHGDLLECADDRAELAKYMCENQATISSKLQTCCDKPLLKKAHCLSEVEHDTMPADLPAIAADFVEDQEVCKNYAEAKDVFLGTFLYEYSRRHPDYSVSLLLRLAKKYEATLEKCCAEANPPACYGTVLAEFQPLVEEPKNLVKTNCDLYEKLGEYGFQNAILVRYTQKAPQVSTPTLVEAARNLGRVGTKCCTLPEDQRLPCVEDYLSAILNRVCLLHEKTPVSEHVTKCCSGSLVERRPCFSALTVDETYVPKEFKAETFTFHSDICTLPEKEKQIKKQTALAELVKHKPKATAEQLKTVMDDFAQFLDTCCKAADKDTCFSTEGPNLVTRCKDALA
T1 sequence (P50391 whole entry): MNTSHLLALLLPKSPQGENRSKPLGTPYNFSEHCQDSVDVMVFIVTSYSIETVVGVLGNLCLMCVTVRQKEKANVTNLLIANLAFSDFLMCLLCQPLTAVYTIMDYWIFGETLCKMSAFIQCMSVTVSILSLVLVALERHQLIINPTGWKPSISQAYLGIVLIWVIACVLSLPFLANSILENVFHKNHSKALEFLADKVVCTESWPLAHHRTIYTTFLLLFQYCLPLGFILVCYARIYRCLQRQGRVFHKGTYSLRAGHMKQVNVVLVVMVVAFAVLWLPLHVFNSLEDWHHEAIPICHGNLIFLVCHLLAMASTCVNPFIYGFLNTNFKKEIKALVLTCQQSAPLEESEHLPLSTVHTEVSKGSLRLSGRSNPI

Molecule	effect on cAMP levels in the HEK parental cells (HEK parental cells)	cross reaction with MuSA (MuSA)	PK (T½) Mice [1, 5]	half-life in mice plasma [1]	increase in half life when co-injected with HSA [1]	cross reaction with RhSA (RhSA)	DSC (Tm) [2]	SEC Dimer (%) [3]	SEC Monomer (%) [3]	other results
KCNTATCATQRLANFLVRSSNNLGPVLPPTNVGSNTY [Amylin Control Peptide, reference compound]	no significant effect	–	–	–	–	–	–	–	–	–
APLEPMYPGDYATPEQMAQYETQLRRYINTLTRPRY-NH2 [PP Control Peptide]	–	–	–	–	–	–	–	–	–	Efficacy (human NPY Y4 receptor): 100; EC50 (human NPY Y4 receptor; read-out: Potency (EC50)): 1.7 nM
B1	–	did not cross react	0.53 h	0.28 h	~2 fold	cross reacted	65.2 °C	BLD	99%	PK (T½) Mice ([1]; co-injected with HSA): 0.533 h; Comments: T½ in mice in words ([1]; mouse, in vivo): Poor T½ observed in mice
B2	no significant effect	–	–	–	–	–	–	–	–	Koff (1/s) (Human serum albumin): 2.41 10^−4 1/s; Kon (1/Ms) (Human serum albumin): 9.34 10^3 1/Ms
B3	–	did not cross react	5.6 h	0.56 h	~10 fold	cross reacted	63.9 °C	7.7%	92.3%	Resistant to pH 7.4→5.5? (HSA; binding to HSA from pH 7.4 down to pH 5.5, symbols not defined): fits biochemical criteria for pH resistance and affinity/kinetics down to pH 5.5; AUCall ([4]; individual monkeys #1 and #2): 673.7 µg·h/mL and 625.1 µg·h/mL; Cl_obs ([4]; individual monkeys #1 and #2): 1.45 mL/h/kg and 1.60 mL/h/kg; Cmax ([4]; individual monkeys #1 and #2): 9030 ng/mL and 7240 ng/mL; Vz_obs ([4]; individual monkeys #1 and #2): 0.2008 L/kg and 0.3152 L/kg; t½ ([4]; individual monkeys #1 and #2): 95.8 h and 136.6 h
B4	–	did not cross react	4.6 h	–	–	cross reacted	70.1 °C	12%	88%	Comments: decrease in KD observed at pH <6.0 (HSA; pH <6.0): >2-fold decrease in KD observed at; Comments: binding affinity for RhSA (RhSA): Poor binding affinity for RhSA.; AUCall ([4]; Mean, N 2): 246.882 µg·h/mL; Cl_obs ([4]; Mean, N 2): 4.089 mL/h/kg; Cmax ([4]; Mean, N 2): 17358 ng/mL; HL_Lambda_z ([4]; Mean, N 2): 12.186 h; Vz_obs ([4]; Mean, N 2): 0.072507 L/kg
